Assay results from publication PMC6480404.
pKd: −log10 of the molar value.

Assays:
[1] = molecular target: Streptococcus pyogenes Cas9 (Streptococcus pyogenes) (UniProt Q99ZW2); assay: cryo-EM structure
[2] = molecular target: Streptococcus pyogenes Cas9 (Streptococcus pyogenes) (UniProt Q99ZW2); assay: native gel or EMSA

- stoichiometry N [1]: 1
- pKd [2]: 6.29
Substance: AcrIIA2 (natural protein)
